Changes are numbered by the printed parent chain.
B1: VG9B104 (antibody, human IgG1, kappa, V domains shown)
VH: EVQLVESGGGLVKPGGSLRLSCAASGFTFSVYSMNWVRQAPGKGLEWVSSIGSSSSYIFYADSVKGRFTISRDNAKNSLYLQMNSLRAEDTAVYYCGRDHDYGGLDYWGQGTLVTVSS
VL: EIVLTQSPGTLSLSPGERATLSCRASQSVSSSYLAWYQQKPGQAPRLLIYGPSNRATDIPDRFSGTGSGTDFTLTISRLEPEDFAVYYCQQYGRSPLTFGGGTKVEIKR
B2: VG9B136 (antibody, human IgG1, kappa, V domains shown)
VH: QVQLQQSGPGLVKPSQTLSLTCAISGDSVSSNRAAWNWIRQSPSKGLEWLGRTYYRSKWYNEYAASVKSRMSINPDTSKNQFSLQLNSVTPEDTALYYCARDLWELREACDIWGQGTMVTVSS
VL: DIVMTQSPSFLSTFVGDRVTITCRASQGISSYLAWYQQKPGKVPKLLIYVASTLQSGVPSRFSGSGSGTEFTLTISSLQPEDFATYYCQQLNSYPFTFGPGTKVDIKR
B3: VG9B410 (antibody, human IgG1, kappa)
heavy: not shown
light: DIQMTQSPSSVSASVGDRVTITCRASQGINSWLAWYQQKPGNAPKLLIYAASSLQSGVPSRFSGIGSGTDFIFTISSLQPEDFASYYCQQANSFPWTFGQGTKVEIKRTVAAPSVFIFPPSDEQLKSGTASVVCLLNNFYPREAKVQWKVDNALQSGNSQESVTEQDSKDSTYSLSSTLTLSKADYEKHKVYACEVTHQGLSSPVTKSFNRGEC
B4: VG9B144 (antibody, human IgG1, lambda, V domains shown)
VH: QVQLVQSGAEVKKPGASVKVSCKASGYTFTGYYMHWMRQAPGQGLEWMGWINPNSGATNKEQKFQGRVTMTRDTSISTAYMELSRLRSDDTAVYYCAREDDAFDVWGQGTMVTVSS
VL: SSELTQDPAVSVALGQTVRITCQGDNLRNYYATWFQQKPGQAPVLVFFGKNNRPSGIPDRFSGSSSGDTASLTITGAQAEDEADYYCNSRDSSGNHVVFGGGTKLTVLG
B5: VG9B369 (antibody, human IgG1, kappa, V domains shown)
VH: EVQLLESGPTLVKPTQTLTLTCTFSGFSLSTIGVGVGWIRQPPGKALEWLSLIYWNDDKRYNPSLKSRLTITKDTSKNQVVLTMTNMDPVDTATYYCAHSHDWVHAFDIWGQGTMVTVSS
VL: DIVMTQSPSSLSASVGDRVTITCQASQDISHYLNWYQQKPGKAPKFLIYDASNLDTGVPSRFSGSGSGTDFTFTISSLQPEDIATYYCQQYDNFPLTFGGGTKVEIKR
B6: VG9B195 (antibody, human IgG1, lambda, V domains shown)
VH: EVQLVESGGGLVKPGGSLRLSCAASGFTFSPYTMNWVRQAPGKGLEWVSSISSSSSYMYYADSVKGRFTISRDNAKNSLYLQMNSLRAEDTAVYYCARDGDLVGPTYYFDYWGQGTLVTVSS
VL: SYELMQPPSVSVSPGQTASITCSGDKLGDKYACWYQQKPGQSPVLVIYQHNKRPSGIPERFSGSNSGKTATLTISGTQAMDEADYYCQAWDSTTVVFGGGTKLTVLG
B7: VG9B140 (antibody, human IgG1, kappa, V domains shown)
VH: EVQLVESGGGLVKPGGSLRLSCAGSGFTFRSYDMNWVRQAPGKGLEWVSSISTSSGYIYYADSVKGRFTISRDNAKNSLSLQMNSLRAEDTAVFYCARDRGIAVAGDYYYGMDVWGQGTMVTVSS
VL: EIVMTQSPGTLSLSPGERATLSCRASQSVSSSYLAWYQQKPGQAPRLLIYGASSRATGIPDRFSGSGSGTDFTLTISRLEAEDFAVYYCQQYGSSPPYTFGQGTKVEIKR
B8: VG9B416 (antibody, human IgG1, kappa)
heavy: not shown
light: EIVLTQSPGTLSLSPGDRATLSCRASQSVASSYLAWYQQKPGQSPRLLIYGASSRATGIPDRFSGSGSGTDFTLTISRLEPEDFAVYYCQQYGSSPPYTFGQGTKLEIKRTVAAPSVFIFPPSDEQLKSGTASVVCLLNNFYPREAKVQWKVDNALQSGNSQESVTEQDSKDSTYSLSSTLTLSKADYEKHKVYACEVTHQGLSSPVTKSFNRGEC
B9: VG9B54 (antibody, human IgG1, kappa, V domains shown)
VH: EVQLVESGGGLVKPGGSLRLSCAASGFAFSSYSLTWVRQAPGKGLEWVSSISSSSSYIFYADSVKGRFTISRDNAKNSLYLQMNSLRAEDTAVYYCATDGELGPFDYWGQGTTVTVSS
VL: B1 VL with L4M, Y37F, L47R, P52A, N54S, D58G, T66S
B10: VG9B80 (antibody, human IgG1, kappa, V domains shown)
VH: EVQLVQSGGGLVKSGGSLRLSCAASGFTFSTYSMNWVRQAPGKGLEWVSSISSSSSYIFYADSVKGRIIISRDNAKNSLYLQMNSVRADDTAVYYCAKDGELGVFDYWGQGTLVTVSS
VL: B1 VL with P15A, V29I, L47V, N54G, D58G, S64R, T66S, Y92F
B11: VG9B121 (antibody, human IgG1, kappa, V domains shown)
VH: EVQLVESGGGLVKPGGSLRLSCVASGFTFSDYAMDWVRQAPGKGLDWISSISSTSNYIFYADSVKGRFTISRDNAKNSLYLQMNSLRVEDSAVYYCANSYNWNYGGAFDIWGQGTMVTVSS
VL: DIQMTQSPGTLSSSPGERATLSCRASQSVSSSYFAWYQQKPGRAPRLLIYGASSRATGIPDRFSGSGSGTDFTLTISRLEPEDFAVYFCQQYGRSPLTFGGGTKVEIKR
B12: VG9B429 (antibody, human IgG1, kappa)
heavy: not shown
light: B3 light with K103R, V104L
B13: VG9B414 (antibody, human IgG1, kappa)
heavy: not shown
light: B3 light with D1E, Q3V, K103R, V104L
B14: VG9B46 (antibody, human IgG1, kappa, V domains shown)
VH: EVQLVESGGGLVKPGGSLRLSCEASGFTFSINSMNWVRQAPGKGLEWVSSISSTSDYIFNADSVKGRFTISRDNAKNSLYLQMNSLRAEDTAVYYCVRDDVFGAFDIWGQGTMVTVSS
VL: EIVLTQSPGTLSLSPGERATLSCRTSQSVSRSYLGWYQQKPGQPPRLLIFGSSSRATGIPDRFSGSGSGTDFTLTISRLEPEDFAVYYCQQYSRSPLTFGGGTKVDIKR

Biological target: T1, T cell receptor (TCR) Vγ9 (TRGV9) (human, UniProt Q99603 21-122)
T1 chain (looked up): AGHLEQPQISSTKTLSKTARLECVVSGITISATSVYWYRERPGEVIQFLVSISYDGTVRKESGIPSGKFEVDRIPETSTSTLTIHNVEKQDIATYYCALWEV
Test: cell-based or functional assay
For CD25+ (Vg9+ cells), flow staining in this document: test concentration or dose not given here.
For CD71+ (Vg9+ cells), flow staining in this document: test concentration or dose not given here.

With B1 the “CD25+ (Vg9+ cells), flow staining” value was 41.4%.

With B1 the “CD71+ (Vg9+ cells), flow staining” value was 95.2%.

In the case of B1, the “Granzyme B, Luminex (supernatant)” value is reported as 5290.

For B1, the “IFNγ, Luminex (supernatant)” value was 2440.

For B1, the “IL6, Luminex (supernatant)” value was 1090.

B1 was tested, and the “TNFα, Luminex (supernatant)” value was 4130.

In the case of B1, the “Vg9 T cell %, flow staining” value is reported as 5.1%.

Biological target: T2, TCR gamma/delta constant region (TRGDC) (human, UniProt P0CF51 1-173; B7Z8K6 1-153)
T2 chain (looked up) 1: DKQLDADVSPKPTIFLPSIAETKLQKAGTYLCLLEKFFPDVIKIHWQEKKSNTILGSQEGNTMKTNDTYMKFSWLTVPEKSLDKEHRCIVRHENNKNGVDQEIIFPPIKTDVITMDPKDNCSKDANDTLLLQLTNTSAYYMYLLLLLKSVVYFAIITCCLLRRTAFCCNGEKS
T2 chain (looked up) 2: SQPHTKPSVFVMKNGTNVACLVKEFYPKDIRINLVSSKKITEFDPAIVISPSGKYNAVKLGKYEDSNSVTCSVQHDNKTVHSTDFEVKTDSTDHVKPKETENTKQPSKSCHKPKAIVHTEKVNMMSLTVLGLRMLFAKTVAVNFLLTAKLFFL
Test: cell-based or functional assay

Compared with B2, B3 is higher in “CD25+ (Vg9+ cells), flow staining” value: 33.3% for the first, 36.5% for the second.

Going from B4 to B5, the “CD25+ (Vg9+ cells), flow staining” value rises from 20.6% to 27.1%.

Going from B2 to B3, the “CD71+ (Vg9+ cells), flow staining” value rises from 94.9% to 98.2%.

Compared with B4, B5 is higher in “CD71+ (Vg9+ cells), flow staining” value: 89.6% for the first, 92.4% for the second.

Compared with B2, B3 is higher in “Granzyme B; Luninex (supernatant)” value: 1540 for the first, 4390 for the second.

Going from B4 to B5, the “Granzyme B; Luninex (supernatant)” value rises from 1760 to 2630.

Going from B2 to B3, the “IFNγ; Luninex (supernatant)” value rises from 560 to 2120.

First: B4
Second: B5
The “IFNγ; Luninex (supernatant)” value of the first is lower: 352 for the first, 1460 for the second.

Compared with B2, B3 is higher in “IL6; Luninex (supernatant)” value: 279 for the first, 590 for the second.

Compared with B4, B5 is higher in “IL6; Luninex (supernatant)” value: 123 for the first, 4900 for the second.

Compared with B2, B3 is lower in “TNFα; Luninex (supernatant)” value: 192 for the first, 158 for the second.

First: B4
Second: B5
The “TNFα; Luninex (supernatant)” value of the first is higher: 215 for the first, 138 for the second.

First: B2
Second: B3
The “Vg9 T cell %, flow staining” value of the first is lower: 5.7% for the first, 12.3% for the second.

Going from B4 to B5, the “Vg9 T cell %, flow staining” value rises from 3.8% to 6.1%.

What follows are binders tested against T3, T cell receptor (TCR) Vγ9 (TRGV9) (human, UniProt Q99603 21-122) (assay: cell-based or functional assay).
T3 sequence (looked up): T1 chain (looked up)

First: B6
Second: B7
The “CD25+ (Vg9+ cells), flow staining” value of the first is lower: 15.8% for the first, 20.4% for the second.

First: B8
Second: B9
The “CD25+ (Vg9+ cells), flow staining” value of the first is higher: 46.4% for the first, 32.4% for the second.

Compared with B10, B11 is higher in “CD25+ (Vg9+ cells), flow staining” value: 49.6% for the first, 50.9% for the second.

Going from B12 to B13, the “CD25+ (Vg9+ cells), flow staining” value falls from 25.8% to 24.8%.

For B14, the “CD25+ (Vg9+ cells), flow staining” value was 37.9%.

Compared with B6, B7 is lower in “CD71+ (Vg9+ cells), flow staining” value: 86.9% for the first, 70.6% for the second.

Compared with B8, B9 is lower in “CD71+ (Vg9+ cells), flow staining” value: 98.8% for the first, 93.3% for the second.

Going from B10 to B11, the “CD71+ (Vg9+ cells), flow staining” value rises from 98.3% to 98.7%.

First: B12
Second: B13
The “CD71+ (Vg9+ cells), flow staining” value of the first is higher: 91.6% for the first, 88.1% for the second.

For B14, the “CD71+ (Vg9+ cells), flow staining” value was 95.8%.

Compared with B6, B7 is higher in “Granzyme B, Luminex (supernatant)” value: 1060 for the first, 2160 for the second.

Going from B8 to B9, the “Granzyme B, Luminex (supernatant)” value falls from 3390 to 3100.

Compared with B10, B11 is lower in “Granzyme B, Luminex (supernatant)” value: 3010 for the first, 1350 for the second.

Compared with B12, B13 is lower in “Granzyme B, Luminex (supernatant)” value: 2150 for the first, 1490 for the second.

With B14 the “Granzyme B, Luminex (supernatant)” value was 3170.

Going from B6 to B7, the “IFNγ, Luminex (supernatant)” value rises from 303 to 796.

Going from B8 to B9, the “IFNγ, Luminex (supernatant)” value rises from 1180 to 1600.

Compared with B10, B11 is lower in “IFNγ, Luminex (supernatant)” value: 1360 for the first, 429 for the second.

Compared with B12, B13 is lower in “IFNγ, Luminex (supernatant)” value: 1250 for the first, 476 for the second.

B14 was tested, and the “IFNγ, Luminex (supernatant)” value was 1150.

Going from B6 to B7, the “IL6, Luminex (supernatant)” value rises from 166 to 602.

First: B8
Second: B9
The “IL6, Luminex (supernatant)” value of the first is lower: 225 for the first, 761 for the second.

Going from B10 to B11, the “IL6, Luminex (supernatant)” value falls from 385 to 161.

Going from B12 to B13, the “IL6, Luminex (supernatant)” value falls from 816 to 219.

For B14, the “IL6, Luminex (supernatant)” value was 375.

Going from B6 to B7, the “TNFα, Luminex (supernatant)” value rises from 61 to 3520.

First: B8
Second: B9
The “TNFα, Luminex (supernatant)” value of the first is lower: 87 for the first, 6100 for the second.

Compared with B10, B11 is lower in “TNFα, Luminex (supernatant)” value: 4910 for the first, 96 for the second.

First: B12
Second: B13
The “TNFα, Luminex (supernatant)” value of the first is higher: 583 for the first, 186 for the second.

In the case of B14, the “TNFα, Luminex (supernatant)” value is reported as 5260.

First: B6
Second: B7
The “Vg9 T cell %, flow staining” value of the first is lower: 3.7% for the first, 3.9% for the second.

Compared with B8, B9 is lower in “Vg9 T cell %, flow staining” value: 13.9% for the first, 10.5% for the second.

Compared with B10, B11 is higher in “Vg9 T cell %, flow staining” value: 5.2% for the first, 16.1% for the second.

Compared with B12, B13 is higher in “Vg9 T cell %, flow staining” value: 3% for the first, 4% for the second.

In the case of B14, the “Vg9 T cell %, flow staining” value is reported as 4.4%.

— patent US20220125947A1 (published 2022)
